# Values of other authors as cited in publication PMC4599565.
# Target: VWF (Homo sapiens) (UniProt P04275)
substance,measurement,value
ADAMTS13 (from UniProt Q76LX8),Kd,20 nM
